Experimental data taken from IntAct's records for PubMed 19513100.

Legend:
rb_mouse Rb1 = rb_mouse Rb1 (UniProt P13405)
fog1_human ZFPM1 = fog1_human ZFPM1 (UniProt Q8IX07)
Chain of fog1_human ZFPM1 (Q8IX07 whole entry): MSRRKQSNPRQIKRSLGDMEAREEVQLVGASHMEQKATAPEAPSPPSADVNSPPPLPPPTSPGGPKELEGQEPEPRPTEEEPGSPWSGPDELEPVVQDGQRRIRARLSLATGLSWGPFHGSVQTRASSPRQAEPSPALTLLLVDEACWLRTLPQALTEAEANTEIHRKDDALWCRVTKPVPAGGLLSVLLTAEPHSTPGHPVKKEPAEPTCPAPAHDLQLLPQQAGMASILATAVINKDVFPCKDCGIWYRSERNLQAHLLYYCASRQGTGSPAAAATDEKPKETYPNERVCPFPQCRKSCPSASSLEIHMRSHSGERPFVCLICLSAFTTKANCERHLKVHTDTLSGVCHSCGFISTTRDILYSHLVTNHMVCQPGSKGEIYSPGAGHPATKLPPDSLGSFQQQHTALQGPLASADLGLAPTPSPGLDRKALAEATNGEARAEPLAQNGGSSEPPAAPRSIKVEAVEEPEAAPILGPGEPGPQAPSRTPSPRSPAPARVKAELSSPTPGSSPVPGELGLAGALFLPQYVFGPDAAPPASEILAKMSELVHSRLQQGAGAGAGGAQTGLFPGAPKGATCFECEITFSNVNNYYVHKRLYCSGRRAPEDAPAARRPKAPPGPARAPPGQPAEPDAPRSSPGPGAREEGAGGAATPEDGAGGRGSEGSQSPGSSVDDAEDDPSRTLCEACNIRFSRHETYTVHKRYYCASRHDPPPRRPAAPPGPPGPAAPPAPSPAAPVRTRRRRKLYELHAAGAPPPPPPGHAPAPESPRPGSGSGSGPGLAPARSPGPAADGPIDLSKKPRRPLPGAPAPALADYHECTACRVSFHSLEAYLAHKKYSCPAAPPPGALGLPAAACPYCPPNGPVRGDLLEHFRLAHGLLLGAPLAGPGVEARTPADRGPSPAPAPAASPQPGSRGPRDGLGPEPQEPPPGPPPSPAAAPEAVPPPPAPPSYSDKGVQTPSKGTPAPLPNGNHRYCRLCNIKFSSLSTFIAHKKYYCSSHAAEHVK

Chain of rb_mouse Rb1 (P13405 whole entry): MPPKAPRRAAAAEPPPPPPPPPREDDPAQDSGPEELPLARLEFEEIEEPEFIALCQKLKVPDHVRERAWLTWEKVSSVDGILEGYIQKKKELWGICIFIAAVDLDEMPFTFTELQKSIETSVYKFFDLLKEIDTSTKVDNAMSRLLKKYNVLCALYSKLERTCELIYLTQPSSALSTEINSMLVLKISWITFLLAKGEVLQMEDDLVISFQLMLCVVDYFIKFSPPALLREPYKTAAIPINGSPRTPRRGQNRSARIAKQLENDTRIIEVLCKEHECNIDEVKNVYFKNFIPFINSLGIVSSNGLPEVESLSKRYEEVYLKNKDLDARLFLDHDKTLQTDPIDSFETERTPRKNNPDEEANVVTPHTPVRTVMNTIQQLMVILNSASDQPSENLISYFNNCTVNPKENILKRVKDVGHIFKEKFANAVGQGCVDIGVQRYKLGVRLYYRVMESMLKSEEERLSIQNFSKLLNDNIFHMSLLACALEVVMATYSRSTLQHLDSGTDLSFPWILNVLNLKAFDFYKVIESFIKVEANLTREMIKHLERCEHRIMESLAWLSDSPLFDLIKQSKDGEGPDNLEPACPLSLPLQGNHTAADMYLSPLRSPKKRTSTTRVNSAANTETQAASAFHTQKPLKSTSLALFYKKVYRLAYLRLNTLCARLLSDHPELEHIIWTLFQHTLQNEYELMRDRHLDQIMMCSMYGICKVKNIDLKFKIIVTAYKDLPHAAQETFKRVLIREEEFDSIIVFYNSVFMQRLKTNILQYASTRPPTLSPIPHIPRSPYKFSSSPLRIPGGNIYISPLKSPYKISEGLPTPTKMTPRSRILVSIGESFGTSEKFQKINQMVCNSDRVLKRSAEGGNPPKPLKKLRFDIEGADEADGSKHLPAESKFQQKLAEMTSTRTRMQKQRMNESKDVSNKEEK
Chain of Erythroid transcription factor (Homo sapiens), P15976 V205G (P15976 whole entry V205G): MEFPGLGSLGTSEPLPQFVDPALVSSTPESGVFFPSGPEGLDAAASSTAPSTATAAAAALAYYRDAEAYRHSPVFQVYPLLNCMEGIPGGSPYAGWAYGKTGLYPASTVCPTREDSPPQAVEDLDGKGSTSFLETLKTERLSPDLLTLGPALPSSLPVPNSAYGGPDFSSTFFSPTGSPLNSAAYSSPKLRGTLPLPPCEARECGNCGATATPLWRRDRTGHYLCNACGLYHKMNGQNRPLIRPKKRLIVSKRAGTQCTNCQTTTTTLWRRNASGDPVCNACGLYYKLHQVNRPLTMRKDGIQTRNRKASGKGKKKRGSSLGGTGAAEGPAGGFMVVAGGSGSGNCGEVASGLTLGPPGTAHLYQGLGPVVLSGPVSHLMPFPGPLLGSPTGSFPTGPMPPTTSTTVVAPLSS
Chain of Erythroid transcription factor (Homo sapiens), P15976 C83G;E85K (P15976 whole entry C83G/E85K): as the sequence (P15976 whole entry V205G) above, with C83G, E85K, G205V counted along it

effect of a mutation on the interaction (rb_mouse Rb1) | effect of a mutation on the interaction (fog1_human ZFPM1) | Substance
disrupting interaction |  | Erythroid transcription factor (Homo sapiens), P15976 C83G;E85K
 | disrupting interaction | Erythroid transcription factor (Homo sapiens), P15976 V205G
